Measured values published in patent US6528630.

Assays:
[1] = molecular target: T1, α1B-1α2b human neuronal calcium channel subunit combination (human); assay: Bmax of 125I-ω-CgTx GVIA binding, against α1B-1 alone
[2] = molecular target: human neuronal calcium channel α1B-1 subunit alone (human); assay: saturation binding of 125I-ω-CgTx GVIA to transfected HEK293 cells
[3] = molecular target: T1, α1B-1α2b human neuronal calcium channel …; assay: as above

B1: 125I-ω-CgTx GVIA, P01522 46-72 (peptide)
peptide: CKSPGSSCSPTSYNCCRSCNPYTKRCY
modifications: not checked
B1 was tested, and the fold change of binding capacity [1] was 3 fold, the Bmax [2] was 757 sites/cell and the Kd [2] was 0.0317 nM. It also gave a Bmax [3] of 2260 sites/cell and a Kd [3] of 0.0846 nM.
